Experiments:
[1] = tested on: EECM-BMEC-like cell monolayers; type: in vitro ADME, human
Experimental: EPCs purified as described above were plated on collagen IV (10 μg/ml)-coated plates in hECSR medium in the presence of 5 μM ROCK inhibitor Y-27632 of 10′000-20′000/cm^2 as described before (33). Twenty-four hours later, medium was changed to hECSR without ROCK inhibitor and then medium was changed every 2 days. Once the cells reached 100% confluency (FIG. 3B (i)), the cells were passaged using Accutase (Innovative Cell Technologies, San Diego, CA, USA). In detail, medium was removed and 1 ml of Accutase was added to the 6-well plate and cells were carefully observed under an inverted microscope (Zeiss Axiovert 25). Once endothelial cells started to become round (FIG. 3B (ii)), the endothelial cells were physically detached by tapping the 6-well plate (FIG. 3B (iii)). […] These cell densities were found optimal for achieving closed monolayers. Coating with collagen IV/fibronectin for Transwell filters was chosen as it was previously shown to be optimal for growing primary BMECs and for UMM-BMEC-like cells. […]
Bovine pericytes (15), the human brain pericyte cell line (HBPCT) (34), the human astrocyte cell line (hAST) (35), and hiPSC-derived astrocytes (iPS_AC) (29) were obtained and maintained as previously described. […] Transendothelial electrical resistance (TEER) was measured using a Volt-Ohm-Meter (Millicell ERS-2, MERSSTX01-electrode). […]

[2] = tested on: UMM- and DMM-differentiated BMEC-like cells
Experimental: Unconditioned medium method (UMM) (14, 16) and defined medium method (DMM) (17) were slightly modified and used to differentiate brain microvascular endothelial-like cells (BMEC-like cells). In brief, hiPSCs were seeded onto a Matrigel-coated plate in mTeSR1 supplemented with 10 μM ROCK inhibitor Y-27632 (Selleckchem, Houston, TX, USA) for 24 hours (day −3 or day −4). […] At day 0, cells were induced to differentiate using specific medium for each method: For UMM, medium was switched to unconditioned medium (DMEM/F12 with 20% Knockout serum replacement, 1× non-essential amino acids, 0.5× Glutamax, and 0.1 mM β-mercaptoethanol) and changed every day for 6 days. For DMM, medium was switched to DeSR1 (DMEM/F12 with 1× non-essential amino acids, 0.5× Glutamax, and 0.1 mM β-mercaptoethanol) supplemented with 6 μM CHIR99021 (Selleckchem, Houston, TX, USA) and cultured for 24 hours. […]
(§1) Permeability of EC monolayers was assessed by measuring the clearance of sodium fluorescein (NaFl, 376.3 Da, Sigma-Aldrich) as previously described (16). […] Medium samples containing fluorescent tracer that had diffused across the monolayers were collected from the bottom well every 15 min for a total of 60 min, and fluorescence intensity was measured in a Tecan Infinite M1000 multi-well reader (Tecan Trading AG, Männedorf, Switzerland). […]

[3] = tested on: hPSC-derived endothelial progenitors (Passage 1 ECs); experiment: Immunocytochemistry of Passage 1 ECs treated with Wnt ligands, CHIR or conditioned media; type: cell-based, human; details: for fraction of GLUT-1+ ECs vs control: Passage 1 ECs, 6 days, Wnt3a 20 ng/mL, Wnt7a 50 ng/mL, Wnt7b 50 ng/mL; for EC purity (proportion of ECs compared to SMLCs): Passage 1 cultures, 6 days treatment
Experimental: Collagen IV (Sigma-Aldrich) was dissolved in 0.5 mg/mL acetic acid to a final concentration of 1 mg/mL. Collagen IV-coated plates were prepared by diluting a volume of this stock solution 1:100 in water, adding the resulting solution to tissue culture plates, or #1.5 glass bottom plates (Cellvis, Sunnyvale, CA) for cells intended for confocal imaging (1 mL per well for 6-well plates, 0.5 mL per well for 12-well plates, 0.25 mL per well for 24-well plates), and incubating the plates for 1 h at RT. Collagen IV coating solution was removed and EPCs obtained as described above were suspended in hECSR medium and plated at approximately 3×10^4 cells/cm^2. In some experiments, cells were suspended in NR-CM or Astro-CM. In some experiments, ligands and small molecules were added to hECSR medium: CHIR 99021 (Tocris) was used at 4 μM except where indicated; DMSO (Sigma-Aldrich) was used as a vehicle control for CHIR; Wnt3a (R&D Systems) was used at 20 ng/mL; Wnt7a (Peprotech, Rocky Hill, NJ) was used at 50 ng/mL; Wnt7b (Abnova, Tapei, Taiwan) was used at 50 ng/mL; R-spondin 1 (Rspo1; Peprotech) was used at 50 ng/mL; doxycycline was used at 1, 2, or 4 μg/mL. The hECSR medium or CM, including any ligands or small molecules, was replaced every other day until confluent (typically 6 days). We denote this time point “Passage 1.”
Immunocytochemistry was performed in 24-well plates. Cells were washed once with 500 μL DPBS and fixed with 500 μL cold (−20° C.) methanol for 5 min, except cells intended for calponin/SM22a and CD31/Ki67 detection, which were fixed with 500 μL of 4% paraformaldehyde for 15 min. Cells were washed three times with 500 μL DPBS and blocked in 150 μL DPBS supplemented with 10% goat serum (Life Technologies) for 1 h at room temperature, except cells intended for calponin/SM22α detection, which were blocked and permeabilized in DPBS supplemented with 3% BSA and 0.1% Triton X-100, or cells intended for CD31/Ki67 detection, which were blocked and permeabilized in DPBS supplemented with 5% non-fat dry milk and 0.4% Triton X-100. Primary antibodies diluted in 150 μL of the above blocking solutions (see Table 6 for antibody information) were added to cells and incubated overnight at 4° C. on a rocking platform. Cells were washed three times with 500 μL DPBS. Secondary antibodies diluted in 150 μL of the above blocking solutions (see Table 6 for antibody information) were added to cells and incubated for 1 h at room temperature on a rocking platform, protected from light. Cells were washed three times with 500 μL DPBS, followed by 5 min incubation with 500 μL DPBS plus 4 μM Hoechst 33342 (Life Technologies). Images were acquired using an Eclipse Ti2-E epifluorescence microscope (Nikon, Tokyo, Japan) with a 20× objective or an A1R-Si+ confocal microscope (Nikon) with a 100× oil objective. Confocal images were acquired with 1 μm slice spacing.
Images were analyzed using FIJI (ImageJ) software. For epifluorescence images, 5 fields (20×) were analyzed per well, with 3-4 wells per treatment condition. For quantification of cell number, EC colonies were manually outlined, and the Analyze Particles function was used to estimate the number of nuclei within the EC colonies. Nuclei outside the EC colonies were manually counted. EC purity (% EC) was calculated as the number of nuclei within EC colonies relative to total nuclei. To estimate % GLUT-1^+ ECs, cells within the EC colonies with membrane-localized GLUT-1 immunoreactivity (e.g., arrowheads in FIG. 24B) were manually counted. To estimate % Ki67^+ ECs, cells within the EC colonies with at least one nuclear-localized Ki67 punctum were manually counted. For quantification of fluorescence intensity in epifluorescence images, EC colonies were manually outlined, and the Measure function was used to obtain the mean fluorescence intensity for each image channel (fluorophore). A cell-free area of the plate was similarly quantified for background subtraction. […]

Experimental for hiPSC-derived naïve ECs: CD34^+ CD31^+ endothelial progenitor cells (EPCs) were differentiated from hiPSCs as described (32, 33). In brief, hiPSCs were seeded onto a Matrigel-coated plate in mTeSR1 supplemented with 5 μM ROCK inhibitor Y-27632 for 24 hours (day −3). Seeding densities at day −3 were optimized between 16′000/cm^2 to 132′000/cm^2 depending on donor and passage in order to obtain high number of CD34^+ CD31^+ EPCs. At day 0 and day 1, medium was changed to LaSR basal medium (Advanced DMEM/F12, 2.5 mM GlutaMAX, and 60 μg/ml ascorbic acid) supplemented with 8 μM CHIR99021. At day 2, medium was switched to LaSR basal medium and changed every day for another 3 days. […] Purified EPCs were seeded onto collagen IV/fibronectin-coated Transwell filters at a density of 100′000/cm^2 or collagen-IV (10 μg/ml)-coated culture plates at a density of 10′000-20′000/cm^2 in hECSR medium and used for assay or further extended EC culture.
as §1

Row | Molecule | fraction of GLUT-1+ ECs vs control [3] | EC purity (proportion of ECs compared to SMLCs) [3] | other results
1 | O=C([O-])c1ccccc1-c1c2ccc(=O)cc-2oc2cc([O-])ccc12.[Na+].[Na+] [sodium fluorescein] | – | – | lower permeability compared to naïve ECs [1]: ~10 fold; PeNaFl, permeability to sodium fluorescein (hiPSC-derived naïve ECs): 2-10 ×10^−3 cm/min; permeability to sodium fluorescein [2]: less than 0.6 ×10^−4 cm/min
2 | Wnt7a: recombinant Wnt ligand (Peprotech) (protein, UniProt O00755 32-349, looked up) Protein Wnt-7a: LGASIICNKIPGLAPRQRAICQSRPDAIIVIGEGSQMGLDECQFQFRNGRWNCSALGERTVFGKELKVGSREAAFTYAIIAAGVAHAITAACTQGNLSDCGCDKEKQGQYHRDEGWKWGGCSADIRYGIGFAKVFVDAREIKQNARTLMNLHNNEAGRKILEENMKLECKCHGVSGSCTTKTCWTTLPQFRELGYVLKDKYNEAVHVEPVRASRNKRPTFLKIKKPLSYRKPMDTDLVYIEKSPNYCEEDPVTGSVGTQGRACNKTAPQASGCDLMCCGRGYNTHQYARVWQCNCKFHWCCYVKCNTCSERTEMYTCK | slightly increased | increased the proportion of ECs | –
3 | Wnt7b: recombinant Wnt ligand (Abnova) (protein, UniProt P56706 25-349, looked up) Protein Wnt-7b: ALSSVVALGANIICNKIPGLAPRQRAICQSRPDAIIVIGEGAQMGINECQYQFRFGRWNCSALGEKTVFGQELRVGSREAAFTYAITAAGVAHAVTAACSQGNLSNCGCDREKQGYYNQAEGWKWGGCSADVRYGIDFSRRFVDAREIKKNARRLMNLHNNEAGRKVLEDRMQLECKCHGVSGSCTTKTCWTTLPKFREVGHLLKEKYNAAVQVEVVRASRLRQPTFLRIKQLRSYQKPMETDLVYIEKSPNYCEEDAATGSVGTQGRLCNRTSPGADGCDTMCCGRGYNTHQYTKVWQCNCKFHWCCFVKCNTCSERTEVFTCK | not Wnt7b alone | – | –
4 | Wnt3a: ligand widely used to activate canonical Wnt/β-catenin signaling (R&D Systems) (protein, UniProt P56704 19-352, looked up) Protein Wnt-3a: SYPIWWSLAVGPQYSSLGSQPILCASIPGLVPKQLRFCRNYVEIMPSVAEGIKIGIQECQHQFRGRRWNCTTVHDSLAIFGPVLDKATRESAFVHAIASAGVAFAVTRSCAEGTAAICGCSSRHQGSPGKGWKWGGCSEDIEFGGMVSREFADARENRPDARSAMNRHNNEAGRQAIASHMHLKCKCHGLSGSCEVKTCWWSQPDFRAIGDFLKDKYDSASEMVVEKHRESRGWVETLRPRYTYFKVPTERDLVYYEASPNFCEPNPETGSFGTRDRTCNVSSHGIDGCDLLCCGRGHNARAERRREKCRCVFHWCCYVSCQECTRVYDVHTCK | significant increase | not Wnt3a | –
5 | Rspo1: potentiator of Wnt signaling (protein, UniProt Q2MKA7 21-263, looked up) R-spondin-1: SRGIKGKRQRRISAEGSQACAKGCELCSEVNGCLKCSPKLFILLERNDIRQVGVCLPSCPPGYFDARNPDMNKCIKCKIEHCEACFSHNFCTKCKEGLYLHKGRCYPACPEGSSAANGTMECSSPAQCEMSEWSPWGPCSKKQQLCGFRRGSEERTRRVLHAPVGDHAACSDTKETRRCTVRRVPCPEGQKRRKGGQGRRENANRNLARKESKEAGAGSRRRKGQQQQQQQGTVGPLTSAGPA | – | – | EC purity or expression of GLUT-1, claudin-5 or caveolin-1 ([3]; Rspo1 50 ng/mL in combination with Wnt ligands): did not affect
